Target: αβ-tubulin heterodimer purified from porcine brains (porcine) (UniProt P02550)
Test: ITC; DRP or DRPΔN (135-250 μM) injected into αβ-tubulin (20-40 μM); 25°C, 50 mM HEPES pH 7.3, 100 mM KCl, 1 mM MgCl2, 50 μM GDP

Kd: 461 nM
Substance: DRPΔN (DARPin D1 without its N-terminal ankyrin repeat) (designed binder)

From article PMC6251626
